Measured values reported in the DeepSol protein solubility set.

assay: soluble on expression in E. coli; label from the status in PepcDB or PDB records

Row | Sequence | soluble on expression in E. coli
1 | MAKTPVLLDRWGKPVKRAVLTEEISAATLGSVRSPITGYPADGLNPVRLASILREADAGDPVRYLELAETIEERDLHYLGVLGTRRRSVSQLDITVEAASDDPRDVEIADMIRDWLTRDELSDELFHMLDCIGKGYSFTEIIWDTSEGQWRPARLEWRDPRWFRFDRAALTTPLMLGPHGEELELTPFKFIFAEVKAKSGIALRSGLARAAAWAWMFKAFTQRDWAIFTQTYGQPLRLGRYGPGASEDDKATLFRAVANIAGDCAAIIPESMAIDFVETKSVGATADLYKQRADWLDQQISKAVLGQTATTDAVTGGLGSGKEHRQVQEDIERADAKALSGILNRDLIRPWVDLEYGPQARYPRLKIARPEPEDLKAMAEALAALVPIGLRVSQKKTRDRFGFDEPENDADVMGGTPAAAAVAAPPGADRPIKRFSGVFKGGEPPARPETALQAEAAPAALPASDDPAALLADRLAADAAPAMGAMIERVETMLAAAGSLAEFREMLLAGFPGIDAGDLATLMAQAMMAAHAGGRAAAEDAGA | not soluble
2 | MGSDKIHHHHHHMTEKIRVAVVGAAGAFGMKHLDGLMNIPDVEVTVVSGTRLEPTQAVAEKYGVENAVVGLDAVLERDDVDAVILATPTGLHASQTQAVLAAGKHVQVEIPLADSIVDAEAALEAAESSNRVAMVGHTRRFNPSHQLVHNRIASGEFHVQQMDVQTYFFRRTNTNAKGEARSWTDHLLWHHAAHTVDLFAYQAGKIVHANAIQGPIHPELGIAMDMSIQLKSESGAICTLSLSFNNNGPFGTFFRYIGDTETYIARYDDLYNGREEPIDVSHVAVSMNGIELQDREFISAIREGREPNSSLRHVIDCYRVLGSLEKQLS | not soluble
3 | MKKKIGLLVMAYGTPYKEEDIERYYTHIRRGRKPSPEMLEDLTERYRAIGGISPLATITLEQAKKLEKRLNEVQDEVEYHMYLGLKHIEPFIEDAVKEMHNDGIQDAIALVLAPHYSTFSVKSYVGRAQEEAEKLGNLTIHGIDSWYKEPKFIQYWVDAVKSIYSGMSDAEREKAVLIVSAHSLPEKIIAMGDPYPDQLNETADYIARGAEVANYAVGWQSAGNTPDPWIGPDVQDLTRELNEKYGYTSFVYAPVGFVAEHLEVLYDNDFECKVVTDEIGAKYYRPEMPNASDAFIDCLTDVVVKKKESVM | soluble
4 | MVATEKKFTLRHIFKNVSQLEDGKYLYSPDEDHFNVDWNMSISHKKEKLGVYFYCYKSEESASAWSIDTEYDLALKNSSGKRISIDFKYKFSTSTGFGTAELVSWDAMIKDYLIDDVIIMEATVKIINLMGIPKKTLRTFDESNEEFSDVILTVEDEKFYVLKQFLASHSSHFKTLFLRKCEEEAEKSEYTLQDINSIDFQNLLEVLHGEPAIDEETVQGIRDLADKYDMPFPTRKCEEFLIDLSEKSIKEKLKIAKQFQLEKLKMHCLSKIETVDHIKAAMTGDPIEMDLSVLAALLGKSLALH | not soluble
5 | CSKNRKAKAKPVTRGTGAGSRPRGQNKERPPPVPNPDYEPIRKGQRDLYSGLNQRAV | soluble
6 | MVMMSKQLTAQAPVDPIVLGKMGSSYGIRGWLRVFSSTEDAESIFDYQPWFIQKAGQWQQVQLESWKHHNQDMIIKLKGVDDRDAANLLTNCEIVVDSSQLPQLEEGDYYWKDLMGCQVVTTEGYDLGKVVDMMETGSNDVLVIKANLKDAFGIKERLVPFLDGQVIKKVDLTTRSIEVDWDPGFLEHHHHHH | soluble
7 | GPGSMSAAVTWLQNSLGIDVTGEWARHVHLNVGGTLYTTRRYTLRELKDHRIFGPILDGHAHRCEDGSFLIDRDGSLFRYIIAYLRDGRLSVPENFAEWDMLLQEVRYYELPAMEKSVMDHFEFQQSVFRRQLPHGVYVWWPPASSQIEEGATVKAAPCDCPASVPPPPLSLFALPITDSATGRCEARGATEDQTRALEKVHVEAAADAATRSSAGAAPSSCSSASMSVRIVPPLPGLTVEMSSGRRVMFRETQVLQDLDQLVTVLLTAYGFSIQHWDTERGRVLLTLPGLM | not soluble
8 | MRNFDLSPLYRSAIGFDRLFNHLENNQSQSNGGYPPYNVELVDENHYRIAIAVAGFAESELEITAQDNLLVVKGAHADEQKERTYLYQGIAERNFERKFQLAENIHVRGANLVNGLLYIDLERVIPEAKKPRRIEINLEHHHHHH | soluble
9 | MVADRFSHVRGWVFDLDNTLYPPSARLFDQIERRMTDWVMTELRVVREEADRLRRHYWSTYGTTLAGLMAEHGVDPAPYLSHVHDISLDHLERDMILAARIRALPGRKIVYTNGCAPYAERVLEARGLANLFDAVYGVEHAGFRPKPDRAAFETVFAADRLAPGTAAMFEDDSRNLLAPHEMGMRTVHVAPEALPAPHIHHHTLDLSEFLALLQP | not soluble
10 | MSHKLTILPFLIKFTPKFPQSIDHDEHGLNVYAFDLDHTIIKPKSPNISFSRSASDWQFINFNSKKSTLDYLCNIIDNDPTAVIVIFSNQGGVITVPRTSKSCTKYTNKILLFLKAIKNDERGETLSHRLWLYAAPKRPKTFAANHSKITFASLGESYNNDPNIFEKVRKPMTGMVEFFKRDLESAYRVSEQISPIKLNWIYYCGDAAGRKKDFSDSDIKFAENLHVEFKYPEEIFHG | soluble
11 | MKKSKRKNAQAQEAQETEVLVQEEAEELPEFPEGEPDPDLEDPDLTLEDDLLDLPEEGEGLDLEEEEEDLPIPKISTSDPVRQYLHEIGQVPLLTLEEEVELARKVEEGMEAIKKLSEITGLDPDLIREVVRAKILGSARVRHIPGLKETLDPKTVEEIDQKLKSLPKEHKRYLHIAREGEAARQHLIEANLRLVVSIAKKYTGRGLSFLDLIQEGNQGLIRAVEKFEYKRRFKFSTYATWWIRQAINRAIADQARTIRIPVHMVETINKLSRTARQLQQELGREPTYEEIAEAMGPGWDAKRVEETLKIAQEPVSLETPIGDEKDSFYGDFIPDEHLPSPVDAATQSLLSEELEKALSKLSEREAMVLKLRKGLIDGREHTLEEVGAFFGVTRERIRQIENKALRKLKYHESRTRKLRDFLD | soluble
12 | IGKEKAEVELLQVDPELQAEIIATHNIALQAAVQVEEKKAREAATEAVKEVVIGEYEARYAEHEEYDRIMRDVAEILEQMEHAEVRRLITEDKIRPDGRRVDEIRP | not soluble
13 | MSVLQRIVSRRTQLSESGRQIGDWVLANAAQAAAMTSQDLAAWANVSQSSIVKFTQRLGFKGYSEFKLALTEELGRKQVMVNQPLHSNILADDPVAVIAQKLVQTKTEAMFHTTNALRLDEFSEAISWIQQAVRVQIIGIGGSALVAKDLAFKLLKLGITALTEQDSHVQIATARTLHSQDVLIAISFSGEKREILIAAEAAKQQGAKVIALTTPNKNRLREIADLALDTIADETQHRSSAIASRTAQNVLTDLIFLTLTQQRETSARQLIDDISSDIRQMR | not soluble
14 | AHHHHHHGSKVVIVGNGPGGFELAKQLSQTYEVTVIDKEPVPYYSKPMLSHYIAGFIPRNRLFPYSLDWYRKRGIEIRLAEEAKLIDRGRKVVITEKGEVPYDTLVLATGARAREPQIKGKEYLLTLRTIFDADRIKESIENSGEAIIIGGGFIGLELAGNLAEAGYHVKLIHRGAMFLGLDEELSNMIKDMLEETGVKFFLNSELLEANEEGVLTNSGFIEGKVKICAIGIVPNVDLARRSGIHTGRGILIDDNFRTSAKDVYAIGDCAEYSGIIAGTAKAAMEQARVLADILKGEPRRYNFKFRSTVFKFGKLQIAIIGNTKGEGKWIEDNTKVFYENGKIIGAVVFNDIRKATKLEKEILDFYS | soluble
15 | MSALNELLHDDAIDLNAHAETWQEAIAQAGALLEKTGAITSAYTESMISSVEEQGPYIVVAPGFAFAHARPSEAVKRTAIAWTRLDSPVEFHHSSNDPVTLVVALAAQDDQAHTAAMREIAQVLGSRRRDLDTVATVAELRGVLEASKRRKSRGVAGGATHVTAQDSVESKGKILTVCGNGLGTSLFLKNTLDQVLDTWGWGPFVSTEATDTISAKGRAKEADFLLTSEEIARTLGDVGVPVYVISNFTSEDEIDAALRELYDV | not soluble
16 | MAHHHHHHMSFVKGAIHVSILNNYMDFYKESTVDKIETSFSIRNNNESNTKNNEKRKSSLCIMNDEEKMKNKISKCIKNNNLYKNKKKRRKEKNIISNKSRSKKFLKFNIKGKDKKNNINSNIYNNANNNKLKIKNKNNNNNNNNNKINSCCRNVYKGSTNKRNSKLLLNGEIKHDEIFHTNIDNSFICMNKNDMNLIRKCKENNHPIKQMNTKIKKKKYNKKNVLISKQINKEIQMLKSNNSYIMYHMNEKRNIEKEKKKKKCKKIVKSILYNRKRSHYYISNFLKTCMKIKNNKIQKKLKKYVYLKDIYSTINMSNKQTCNNLNEQNKSQFFFDDLQKVRQVNKCDNKLYKMNFKSLKHQTNGKKNNIKENDNNNNFYNEDNSIAEILSDDYIILNKNKSNKMENKIYNNVINHRHSSEDIYLNHSKSKENNNNLVNSYVMKENNMEDKELMNDNEKKEGQLILKNVNKKIQLCNESKLDNEKKNKGDNIKLGNTKNKDNIYKYLNVLSINKLIKGETYLEKRTKKSDNSNEHKNDNIYDDKKIKYKSVENDTSELLDKNIDNSNFFDEANEKKKKLKKKKMNTCVNKNVMDYVNEDEYYLEERVKKKRKKKKKDNKKYNIKNKNESEEIFEDVSSTNSCIDSNNSGTFIYDEEICKHVINKGNIISNNNNNNNNNNYIVLTGNEKNMNAEEISEYITKQGLNFKEYLIWKEIKIKESKELIHLNLDSSFSVSKGAGLYNYGQNICFFNSIIQAIIRIPYICKDLLNKLHSINCEKRKKKTFCFYCLFEQFACNIISKKSVIKNVLIPYIKKYMCNSYHIGYQEDVHEYLRYFLNSLEKTSFFSSIYIQKMFTGVSKNVTICMNCNNVSLKYEQYYELSLDISSSNNLEDALKHFLSKEMLAGENGYYCEKCKKKKKATKQCVINKLPRVLTIQIKRFFMNSNFDIVKNHKNISYPLYLDMKYYVNNYDLFENNFNNNVISLYEKMNKTNCVGSTTNGPNKKNNKIYHQNNSCNIKSNNHFVHTNYNNKGQNILTPEKLTQQNIIPEHSFSKNKVNYENDFFLNNMNKKRECSNDDIISNINKNENIFFNNKDKEYMINEKYMNTNQCIKLRGGNHNINMHVLKIIENILIDLKESMCQKQIQNKLTSKVLRNMIREKKKLLIKQLKKIKFSKLYKDISLRISKDIDMLYYYFKVNRENDQFKKIIYKYKIDYYEYYVGSTNINADFINYNHNFDSPAKDHHNNNPHQNNDENNNRHSNVNFKEGNAKNSNKKNNYFSFELTGLIKHIGSGTDYGHYIALTKSNNNIYLQCDDNHISYINKKDILNCVKNAYVFIYTCINPEFIDFYNKYVDVLEKKNFDINLPVFEKRVKFKERITMPKEKFINKSLCY | not soluble
17 | MHSTPKRVLLAGATGLTGEHLLDRILSEPTLAKVIAPARKALAEHPRLDNPVGPLAELLPQLDGSIDTAFCCLGTTIKEAGSEEAFRAVDFDLPLAVGKRALEMGARHYLVVSALGADAKSSIFYNRVKGELEQALQEQGWPQLTIARPSLLFGPREEFRLAEILAAPIARILPGKYHGIEACDLARALWRLALEEGKGVRFVESDELRKLGK | soluble
